According to paper PMC3928684 (Biotechnology and bioengineering, 2009):

T1: LovD (simvastatin synthase) (Aspergillus terreus, UniProt Q9Y7D1)
T1 sequence (Q9Y7D1 1-413): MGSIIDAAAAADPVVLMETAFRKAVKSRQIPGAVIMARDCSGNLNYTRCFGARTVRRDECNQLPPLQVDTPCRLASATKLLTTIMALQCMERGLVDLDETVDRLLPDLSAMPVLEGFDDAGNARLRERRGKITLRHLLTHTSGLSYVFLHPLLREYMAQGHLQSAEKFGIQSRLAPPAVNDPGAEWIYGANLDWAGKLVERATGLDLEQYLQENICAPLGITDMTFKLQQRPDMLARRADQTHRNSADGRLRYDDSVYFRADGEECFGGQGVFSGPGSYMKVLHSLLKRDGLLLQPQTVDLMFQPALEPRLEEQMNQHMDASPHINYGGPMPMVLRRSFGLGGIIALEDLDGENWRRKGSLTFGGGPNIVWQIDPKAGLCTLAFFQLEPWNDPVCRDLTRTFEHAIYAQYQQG

B1: LovD (simvastatin synthase) (Aspergillus terreus) (protein)
chain: T1 sequence (Q9Y7D1 1-413)

How the values were obtained:
CCC(C)(C)C(=O)SCCC(=O)OC = assay: purified protein; assay type: biochemical, Aspergillus terreus; conditions: MJSS fixed at 2 mM, DMB-S-MMP 0.25-5 mM; 10% DMSO
[1] = system: C[C@H]1C=C2C=C[C@H](C)[C@H](CC[C@@H](O)C[C@@H](O)CC(=O)O)[C@H]2[C@@H](O)C1; assay: purified protein; assay type: biochemical, Aspergillus terreus; conditions: DMB-S-MMP fixed at 2 mM, MJSS 0.25-5 mM; 10% DMSO
[2] = target: T1, LovD (simvastatin synthase); assay: HPLC at […] nm, conversion of MJSS to simvastatin sodium salt; assay type: biochemical; conditions: read-out: Wild Type; MJSS fixed at 2 mM, DMB-S-MMP 0.25-5 mM; 10% DMSO
purified protein = substrate: C[C@H]1C=C2C=C[C@H](C)[C@H](CC[C@@H](O)C[C@@H](O)CC(=O)O)[C@H]2[C@@H](O)C1; assay: purified protein; assay type: biochemical, Aspergillus terreus; conditions: DMB-S-MMP fixed at 2 mM, MJSS 0.25-5 mM; 10% DMSO; remark: listed apart in the source

Molecule | Km (CCC(C)(C)C(=O)SCCC(=O)OC) [µM] | Km [1] [µM] | kcat [1] [s⁻¹] | Km [2] [µM] | Km (purified protein) [µM] | kcat (purified protein) [s⁻¹]
LovD (simvastatin synthase) (Aspergillus terreus; C40A) | 630 ± 60 | 800 ± 210 | 0.0103 ± 0.00083 | – | – | –
CCC(C)(C)C(=O)SCCC(=O)OC [DMB-S-MMP, α-dimethylbutyryl-S-methyl-3-mercaptopropionate] | – | – | – | 670 ± 40 | – | –
LovD (simvastatin synthase) (Aspergillus terreus; C60A) | 580 ± 30 | 810 ± 190 | 0.01 ± 0.00067 | – | – | –
LovD (simvastatin synthase) (Aspergillus terreus; C40A/C60N) | 610 ± 30 | 820 ± 100 | 0.01 ± 0.00033 | – | – | –
B1 | – | – | – | – | 780 ± 120 | 0.0103 ± 0.0005
